Experimental data as given in the supplement of paper PMC12042874.
± gives the uncertainty stated by the source.

Assay: amyloid nucleation score (Sup35N fusion, yeast selection) (log enrichment); library NNK3; higher = more nucleation; inactive = no reads after selection
Procedure, shortened: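 Yeast lacking psi expressed peptides of 20 random codons fused to Sup35N, received 100 μM copper sulfate for 24 hours, and were then grown for 7 days at 30°C on medium lacking adenine and uracil. Illumina sequencing of input and output plasmid inserts provided the reads. Nucleation scores are DiMSum log enrichments of output over input, centred on the mode of non-aggregating sequences. Any sequence with under 100 input reads was excluded.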

Substance | amyloid nucleation score
RMDWWYSGCLFMRYPALTAL | inactive
MGRAWTIQAGNVMCRVVGKH | -0.283 ± 0.58
LAMHIALDSNRDKAFGVLNE | inactive
SLNCDGSSDGRCAAYQIWLC | inactive
EHFRGRVLVRCLL | inactive
MGGLIFVSLKAWSIILHYNK | inactive
YFCVCSCVDFGYASYRGYAA | inactive
AYSSVLINLSEYTLGIAVPM | 0.062 ± 0.75
VEFIEFMYDPSYYVSNQNST | inactive
RRSYTFRSVGKEWNIAYWYI | inactive
SVLHMWNLRVVLHECYVYHI | inactive
LLKPTVRCKPRLK | inactive
IFNMSEYNKLECTLTLY | inactive
YWDDWLNSTGRDPSHKPRRT | 1.95 ± 0.07
TFSVYADETSKRTVFTVMIW | inactive
CYMVEDRRIDSRSAVSWRYV | inactive
CSATRYFCRNLRRVCVNEYG | inactive
DGHGRRHSRVQIRGIVACSD | inactive
DFGVYNEHHGYLILGIKRDQ | inactive
CVYIDGSIAVGWYMKFILTF | inactive
TYMSNNTMGEFFLNLRVNLY | 2.44 ± 0.068
GVSLATSYKMLLGVIVLGME | 0.697 ± 0.18
ITNIFFFHSTLLRSCRASGN | 2.47 ± 0.063

Substance | amyloid nucleation score
TCYITA | inactive
VKGMKCWCQVRSESGLVSNA | inactive
LRGYLHWLCSECSVLVSAVA | inactive
VEGRCPLNH | inactive
RMDADI | inactive
CEGMKCYVVLTRLRLKKTRT | inactive
AFFTFGAPCIQDNESGDRGG | inactive
RLRVM | inactive
ILCANGYRSVFSYFLFGCAY | inactive
TDYQNWFNVEINKF | 1.48 ± 0.14
MLGVSYCRQVVYKENSYDFR | inactive
CNLVDSYNSKRMVNSTSMPF | inactive
GTLISEVCIFQ | inactive
NVECSCDPEKTFIPKSVSLK | 0.102 ± 0.63
LNIIVDGLAMDVYDEALGSN | inactive
NRQFSDSLYRRACAMKEDCL | 0.643 ± 0.2
LETMN | inactive
ALFSKKFI | 1.83 ± 0.059
HLRVRCLSF | inactive
YMVHDHFKSNFRMCGCGYFN | inactive
CLCSTRVRGSFPPDSTVHNF | inactive
LRRLELIGLECNLTGSRAVP | inactive
PSLYDLKRSCWGSWMAYEWK | inactive

Substance | amyloid nucleation score
HLYHENSVFQLCVCTFVYSS | 2.91 ± 0.069
GGNLFSSVS | inactive
SYYLRLYEVTWFSRFGFDRS | inactive
YYLVDRWREFVGYRKKDCVA | inactive
GRALNWTG | inactive
HSDKCDCSAVDDLLRRVVL | inactive
MAYLNLVQV | inactive
RGMFTFNYMNWGKDLLRPRL | inactive
SSVEHWPQNVFNRYFLYGVY | inactive
MDRIFWD | inactive
QDDAVFSLSI | inactive
ILSIHSGFCWWMRGALNGKL | 1.45 ± 0.14
KFTYSLKLCADFGFLSTWKV | inactive
QCLQALNMKIVFDHVRFRVR | inactive
RLNVYTYAKFRRHRCKATSW | inactive
WSFRVKTNRDDTEMLLSRSE | inactive
ERNFPGLFIQLVHLQPEARM | 0.631 ± 0.34
PKCSIGKSLLVGRLMDVRAV | inactive
LFSQAHGYRDVLGGFRVFWV | inactive
LRKGVRLLFSHHVIIK | inactive
WYSRLRLEQMRKWCHRVL | inactive
TNINSYGLKIESGGWNQLN | inactive
AANPFFTIYHLVRSYNVCRW | inactive

Substance | amyloid nucleation score
GSYFRATACPSLFCSFRVEW | inactive
SSLGSETRFSYKRVHIENWR | -0.97 ± 0.9
LFITSHREGDWWLSTVRIHF | 0.367 ± 0.27
GRRYRKFDNTGGNSPK | inactive
GRSSMFRINNQMLCWVSIPC | inactive
GALAKFLLISKTMRVDMRMV | inactive
HCKRYNVERKNFCDLHNQRY | inactive
CLPQHKISNH | inactive
NLSHDCPPGPAKARYYRNVK | inactive
ILAHAHYVYVALARWPTYGY | -0.35 ± 0.98
GSFGPIFQWNTIGALGFFG | 2.19 ± 0.059
CPTPGWTLKRVGRVYECRG | inactive
KPMGYYLFDVTTELYDNDWF | inactive
MSVQGDHYFPT | inactive
INEWFGSKDFAETGHLEVRY | inactive
DISSLR | inactive
PKIRSF | inactive
FFMEIKYGWKV | 0.898 ± 0.12
GVFRPMWVLARVDSQNLASL | inactive
YNANFFWYLADGIFDA | inactive
RRYPRTLYERVSCVS | inactive
NVMVISMMTSR | inactive
SFDARCGWKLNMFYSCSFIQ | -0.009 ± 0.81

Substance | amyloid nucleation score
SRNVGFGINSQQGLFFRVVV | inactive
GRLIPREGT | inactive
TVRYVYTCFINFQTLVHRRM | -0.784 ± 0.8
SQPDCFNICDLHGRSSCVSK | inactive
MLFPPLLGNWLDSGTTQVRR | inactive
LGVGMQRYMSWRRK | 0.504 ± 0.29
KCFISYR | inactive
GLVWTW | -0.01 ± 0.48
FMKEVSGRQDLLRPIMIHNA | inactive
GTPYCICALSMHSTWDCN | 1.64 ± 0.081
YQERL | inactive
FLDSSVW | inactive
SWLIR | inactive
TDSCKGVWIMVGFALFLMWS | inactive
REDILLRSSFSDSHVGRLKT | inactive
VMHMWCHQGRVWFSTSGFLG | 0.35 ± 0.19
KRMSKKALRLVVSYFSPS | inactive
VPTVLDRFDMMHVSEYRDGA | inactive
CNYCGPEAFGILFDYWTMSY | inactive
SWPSASSFDSR | inactive
TPLARFFTCPHIYYLSPGHS | inactive
WDFDVSVIGLMYKFRSVELG | inactive
QVRNSDRFSCIGSANIRKSL | inactive

Substance | amyloid nucleation score
VRYSPDRKFGETCIKQAVMT | inactive
ELFDERQRLEPI | inactive
KQCIFNISLCSS | 0.008 ± 0.42
RLSHTMCRVLCHWVMSYSVS | inactive
TMSIFDPVE | 1.09 ± 0.11
QWTSFLVLCCTNPRLGSSRV | 2.67 ± 0.073
SIMREMWWSDTLFGGMNRFW | 0.992 ± 0.11
SKFFQQPWL | inactive
IDCILVTGLHVDLLEWQKRQ | 2.03 ± 0.086
TCKVVCRFFHIRACMLGVIL | inactive
LTNCRHSWWEDTTYSMWEVQ | inactive
FVVVHLSVKSIVPAFVSWDR | -0.36 ± 0.84
EVRLLGYLVTRNDM | inactive
YSLRNNFLLVFSLVSDRPIG | 1.06 ± 0.12
HRIVHDSVLKRVFDYFR | inactive
FVAVVSRDISNYSRGRSEKR | inactive
FIGMDIIKYLS | 0.631 ± 0.16
FGCCKRCRHNRVSKEFSWSC | inactive
LVEIVLYWSRVWYWTRGSNV | inactive
AVCFRVLCFKLLTT | inactive
CVVTGMMYTVFDKAFCFNAS | 1.89 ± 0.11
MSGALFMGLGTGRSRVTRNL | inactive
CDVPAKYLGKICDSYALSIF | inactive

Substance | amyloid nucleation score
WSPGESNTLVGVCIEDALRS | inactive
KGLSIIWMGQFGGAEFRITG | inactive
SSYFYHNVILPTHIYNFSVI | 2.27 ± 0.08
IETPSGLRKIELFMTCYYTS | 0.431 ± 0.41
QYISIENHPEACMQGSTCYS | inactive
MDVWASYMTVSESVCSSLVR | inactive
GSYYWGGIGFTSEI | 0.846 ± 0.14
WTSHPYWSL | inactive
MRSNSTVYGTFTRSNVLHIP | inactive
EKWQKDLSNKHVRNAVVAWS | inactive
GSLRNPVSGRLENVGGRAWG | inactive
ILDFDFTSLPNMMRGCRSHL | inactive
QVCYG | inactive
SGCERAWMAVCENRSSCILG | inactive
FRRYRRCDLGLLSSMRPSAH | inactive
SSFLKQLLGSVVNSVNVATV | inactive
WVSFCVCWNFNLY | 3.18 ± 0.064
RNEWCFSKPILEYHCRMDVF | inactive
FMVMRVPRCPVDCNVPGGIN | inactive
